Source: the supplement of paper PMC9170038

Test system: MS2 coat protein
Assay: apparent KD of MS2 coat protein; designed switch direction (-1 OFF switch, 1 ON switch): -1; higher = weaker reporter binding
How it was run: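 Designed RNA switches were transcribed on Illumina chips by stalled E. coli RNA polymerase and titrated with SNAP-549-labelled MS2 coat protein from 0.7 or 1.5 nM, doubling to 3 µM. Step length ran from 0.8–1.5 h at the lowest concentration to 10–20 min at the highest. The apparent KD is the median over clusters for each design, from curve-fitted normalised cluster fluorescence.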

[1] = Eterna round: R95, input ligand: microRNA oligo, concentration not stated
[2] = input ligand: microRNA oligo, concentration not stated
[3] = Eterna round: R95, input ligand: FMN 200 uM
[4] = Eterna round: R95, input ligand: none

Row | Sequence | apparent KD of MS2 coat protein [1] | apparent KD of MS2 coat protein (input ligand: FMN 200 uM) | apparent KD of MS2 coat protein (input ligand: none) | apparent KD of MS2 coat protein [2] | apparent KD of MS2 coat protein [3] | apparent KD of MS2 coat protein [4]
1 | AAUCUGUGAGGAUAUGGUGAGUAGUGCCUGAGCGCUGCUCACCAGAAGGCACAUGAGGAUCACCCAUGUAUGAA [Mat - Exclusion 4 - Mod of JL - D3] (puzzle: Exclusion 4) | 28 nM | – | – | – | – | –
2 | UGUUGUUCAGGAUAUGAUGUAUAAUACAUGAGGAUCACCCAUGUAGAUCCUGCUUUGGCGUCAGAAGGGAAUGUUG [salish99_ex5_r4_107] (Eterna round: R97, puzzle: Exclusion 5) | – | 55.9 nM | 51.8 nM | – | – | –
3 | UGUUGUUACGCAGGAUAUGAGGAUCACCCAUAUUAGGAUAUCGAAAGAGAAGUUCUGAGGAUCACCCAGAAGGGCGGGUUAACA [pwkr exNG2 2xF5 2xFMN.35] (Eterna round: R96, puzzle: Exclusion NG 2) | – | 117 nM | 53.2 nM | 37.8 nM | – | –
4 | GUAUAACUACACGGGCUCAACAUGAGGAUCACCCAUGUCUUAUACGCAAGCUUUUUGCUUGUCUUAUCUGUCCGUGA [Tibimaesan] (puzzle: Sensor v3, turn-off variant 1) | 11.9 nM | – | – | – | 12.6 nM | 12.3 nM
5 | GGCUUGCUAGUAGGAUAUCGCUUGUACAUGAGGAUCACCCAUGUGUGAUAUGCCUACAUAGUGCGUGAGAAGGACUGCAAGCCG [Diatdiinin] (Eterna round: R96, puzzle: Exclusion NG 2) | – | 23.2 nM | 14.1 nM | 8.15 nM | – | –
6 | CUUCUCUCAUGGAAUCCUGACAUGAGGAUCACCCAUGUUGCUGAGGAUAUCCAGCGCUACGGCGCGGAGAAGGCGGCUCUUAAA [Enties] (Eterna round: R96, puzzle: Exclusion NG 3) | – | 12.9 nM | 17.2 nM | 10 nM | – | –
7 | CCUACUCCCGUUAGGAUAUGUGGAGGCGUACCUCCGUAGAAGGAACAUGAGGAUCACCCAUGUCGCUGUCAUGC [Eternabot (L2) Solution 90] (Eterna round: R97, puzzle: Brourd's mod of Exclusion 4) | – | 18.4 nM | 19.9 nM | – | – | –
8 | UCAUGGUUAGAGGAUAUAUAAUUAGUCAGAACAAUAGAAGGCUAGACAUGAGGAUCACCCAUGUAUGUUGAGGU [JR_Ex6_Sub065] (Eterna round: R97, puzzle: Exclusion 6) | – | 42.6 nM | 89.4 nM | – | – | –
9 | CUUUAGACAGGAUAUACUUCCGUGGUCGUAGAGUUACACAGACAUGAGGAUCACCCAUGUAGAAGGGUCAAGCU [Eternabot (L2) Solution 94] (Eterna round: R97, puzzle: Exclusion 2) | – | 76.2 nM | 84.7 nM | – | – | –
10 | AUGGUACAUGAGGAUCACCCAUGUUAGGAUAUCGCGUGUUCUAAAACUAAGAGACACACGAGAAGGGACGACAU (puzzle: Exclusion 1) | 67.8 nM | – | – | – | 51.5 nM | 71.4 nM
11 | UUUUAGCAAGCGAGAUCCCACAUGAGGAUCACCCAUGUGCAUCCAGAAUUACUGGGUGCAAAAGCUCGUCUUAUAUA [Winner reversed engineered] (Eterna round: R97, puzzle: Sensor, turn-off variant 1) | – | 54.9 nM | 50.1 nM | – | – | –
12 | AGGUGACAUGAGGAUCACCCAUGUAAGGAUAUACGGUUAGUGGAGAGAGGGAAGAGAGGUAGAAGGUACGGAGC [JR_Exclu1_Sub058] (puzzle: Exclusion 1) | 227 nM | – | – | – | 240 nM | 316 nM
13 | AGUACUAACACGUGAGUGUUAGUACAAUAAGCUUGUGAAACAUGAGGAUCACCCAUGUCCUCAUAAGCUCGUCUUAU [salish99_TOv2_r3_061] (puzzle: Sensor v3, turn-off variant 2) | 1070 nM | – | – | – | 17.4 nM | 15.6 nM
14 | AUAGUAGAAGUGAGGAUAUCGUAGAUUUUUUGAAACGAGAAGGCACAUGAGGAUCACCCAUGUAAGAUGGAGGU [JR_BMOE4_Sub052] (puzzle: Brourd's mod of Exclusion 4) | 219 nM | – | – | – | 236 nM | 319 nM
15 | AGCCACAGAGGAUAUACAUACAUCCAGUGGUUAAGAAUACAACAUGAGGAUCACCCAUGUAGAAGGCUGUGGCA [Omei Ex2 BD B10] (Eterna round: R97, puzzle: Exclusion 2) | – | 394 nM | 152 nM | – | – | –
16 | UAUAUAUAGUAAGGAUAUGUAAUUAUAUUAUAAACAGAAGGUACUGACAUGAGGAUCACCCAUGUUUUAGUGUGGGCAUGUAGA [JMF's solution 38] (Eterna round: R96, puzzle: Exclusion NG 1) | – | 85.9 nM | 97.7 nM | 60.1 nM | – | –
17 | AUUGUUUAUGUAGGAUAUGCCUGGCGUGCCUUUGCAGAAGGACAUGAGGAUCACCCAUGUAACAUGAGGCUCACCCAUGUCGCA [salish99_ExNG1_r04_113] (Eterna round: R96, puzzle: Exclusion NG 1) | – | 481 nM | 429 nM | 255 nM | – | –
18 | ACGCAUUGCCUUUGGUAGUGCGUAACAUGAGGAUCACCCAUGUAGGAUAUGGUAGGCUUUGCUUACCAGAAGGACAUUAUAUUC [JL ENG3 1.03] (Eterna round: R96, puzzle: Exclusion NG 3) | – | 69.4 nM | 21.9 nM | 22.1 nM | – | –
19 | ACAGUCACAUGGGUACCAGACAUGAGGAUCACCCAUGUGACAGGUACUUUGUGGCGUCUUGUAUAAUUAAUAAUCAA [Sensor v2, turn off variant (Maaon - vinnie MOD7)] (Eterna round: R96, puzzle: Sensor v2, turn-off variant) | – | 9.97 nM | 13.4 nM | 14.3 nM | – | –
20 | UUUUACAAGCUAAGAUCCUACAUGAGGAUCACCCAUGUGGUCCGGUGACGUGAGUCACCGGACUUAGCUCGUCUUGG [salish99_S_TOV1_R5_087] (Eterna round: R97, puzzle: Sensor, turn-off variant 1) | – | 69.5 nM | 84.7 nM | – | – | –
21 | GUAAACGAAGAGGAUAUAUGAUAUCAAAGCUUCAUAGAAGGCUUCACAUGAGGAUCACCCAUGUGAUCUUCAAG [Mat - Exclusion 6 - JL Mod - D25] (Eterna round: R97, puzzle: Exclusion 6) | – | 354 nM | 71.5 nM | – | – | –
22 | AGCGAGCUAGGAUAUACAUGAGGAUCACCCAUGUCUUUUUAGUACUACGGUGGAAGAUGUAGAAGGAGUGAGAA [Soisza] (puzzle: Exclusion 3) | 92.3 nM | – | – | – | – | –
23 | CCUCGACAUGAGGAUCACCCAUGUCAGGAUAUUGUGUUUCGGGUUUUUUACCUUUAGGCAAGAAGGGAUGUGUG [LRO-Excl1-16] (puzzle: Exclusion 1) | 15.8 nM | – | – | – | – | –
24 | UCGACGUCGUCAGGAUAUAGUUUUAAUGUCAUGCUUUUGUUUUUACAUGAGGAUCACCCAUGUCGCUAGAAGGGACUAAAGAUU [JR_ExcNG2_Sub013] (Eterna round: R96, puzzle: Exclusion NG 2) | – | 36.7 nM | 41.7 nM | 34.1 nM | – | –
25 | GGUGUGCUAGGAUAUGCUUUGGGCUCGCUUACCUUCGUUUUACUUGAGGAUCACCCAAGUAGAAGGUGCUUGCC [salish99_ex2_r4_039] (Eterna round: R97, puzzle: Exclusion 2) | – | 13.1 nM | 12.4 nM | – | – | –
26 | CUAGAUCUUCGGAUCUAGUACAUGAGGAUCACCCAUGUGACGAGUUUAUGGGUGAACAAGCUUUUUGCUCGUCUUAU [Sensor v3 - Turn-off variant 1 - 7] (puzzle: Sensor v3, turn-off variant 1) | 16.5 nM | – | – | – | 71.4 nM | 84.8 nM
27 | GGAUAUAGGCGAGGAUAUACGCACCACUAACUAGUAGAAGGCGCACAUGAGGAUCACCCAUGUGAUUUCUCAAUAUGAUACACG [Prohibition 71 - Jieux - Exclusion NG 1] (Eterna round: R96, puzzle: Exclusion NG 1) | – | 218 nM | 183 nM | 107 nM | – | –
28 | GUAUGUGCGAGAGGAUAUCGUGUACAAAGUACACGAGAAGGCUUCACAUGAGGAUCACCCAUGUACCGAGGUGAAACACCUUGA [Omei Exc(NG)1 Bv8] (Eterna round: R96, puzzle: Exclusion NG 1) | – | 934 nM | 270 nM | 173 nM | – | –
29 | GGUUGGCGAGGAUAUACAUGAGGAUCACCCAUGUGAUAGAAAAAAGUGAGGAAGAAAAGUAGAAGGCGCUGACG [salish99_ex3_r3_009] (puzzle: Exclusion 3) | 50.1 nM | – | – | – | 723 nM | 187 nM
